Data from paper PMC6735628.

Assays:
[1] = molecular target: native LIC11711 (L. interrogans serovar Copenhageni (endogenous in strain M20)); experiment: western blot of cell extracts; L. interrogans M20 cells treated with proteinase K for 0, 1 and 3 h, extracts blotted and probed with antiserum against rLIC11711
[2] = molecular target: recombinant protein LIC11711 (L. interrogans serovar Copenhageni (strain M20 genomic DNA)); experiment: non-reducing SDS-PAGE with western blot; purified recombinant proteins, non-reducing against reducing treatment (beta-mercaptoethanol and heating at 96 C); probed with anti-His MAbs or polyclonal antisera
[3] = molecular target: E-cadherin (UniProt P12830); experiment: ELISA; dose-response: 1 ug host component or BSA coated, increasing recombinant protein (0-20 uM); HRP anti-His MAb; KD by non-linear regression in GraphPad Prism 6
[4] = molecular target: plasminogen (human); experiment: ELISA; time course: 1 ug PLG coated, 1 ug recombinant protein for 5, 15, 30, 60 and 120 min; anti-His MAbs; percent of the 120 min value
[5] = molecular target: vitronectin (human); experiment: ELISA; vitronectin (250 ng/well) coated, 5 uM recombinant protein plus increasing heparin, 2 h at 37 C; HRP anti-His MAbs
[6] = molecular target: complement component C9 (human) (UniProt P02748); experiment: ELISA; dose-response: 1 ug host component or BSA coated, increasing recombinant protein (0-20 uM); HRP anti-His MAb; KD by non-linear regression in GraphPad Prism 6
[7] = molecular target: complement component C8 (human) (UniProt P07357); experiment: as above
[8] = molecular target: complement component C7 (human) (UniProt P10643); experiment: as above
UniProt P10643, sequence (P10643 23-843): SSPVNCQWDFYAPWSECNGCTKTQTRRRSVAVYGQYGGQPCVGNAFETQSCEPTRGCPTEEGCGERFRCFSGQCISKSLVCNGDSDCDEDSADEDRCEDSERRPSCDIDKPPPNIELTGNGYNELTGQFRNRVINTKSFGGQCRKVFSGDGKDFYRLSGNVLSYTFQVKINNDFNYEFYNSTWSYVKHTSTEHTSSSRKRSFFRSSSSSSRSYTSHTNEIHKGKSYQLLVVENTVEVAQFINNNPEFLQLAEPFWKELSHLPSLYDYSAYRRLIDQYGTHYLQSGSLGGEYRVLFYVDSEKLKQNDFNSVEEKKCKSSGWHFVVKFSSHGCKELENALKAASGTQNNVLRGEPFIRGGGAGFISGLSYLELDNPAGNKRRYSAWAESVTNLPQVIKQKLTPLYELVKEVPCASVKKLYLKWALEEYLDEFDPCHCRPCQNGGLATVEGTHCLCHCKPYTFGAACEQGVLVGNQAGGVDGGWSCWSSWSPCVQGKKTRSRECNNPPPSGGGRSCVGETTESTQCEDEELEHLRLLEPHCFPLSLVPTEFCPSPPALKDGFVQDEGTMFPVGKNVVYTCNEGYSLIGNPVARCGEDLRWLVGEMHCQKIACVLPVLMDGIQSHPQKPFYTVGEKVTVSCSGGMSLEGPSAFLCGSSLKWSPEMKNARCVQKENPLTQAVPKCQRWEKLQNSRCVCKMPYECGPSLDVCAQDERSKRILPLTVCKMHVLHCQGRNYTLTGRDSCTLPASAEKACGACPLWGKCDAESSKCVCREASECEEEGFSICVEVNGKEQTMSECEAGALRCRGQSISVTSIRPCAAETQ

UniProt P07357, sequence (P07357 31-584, chain 1 of 3): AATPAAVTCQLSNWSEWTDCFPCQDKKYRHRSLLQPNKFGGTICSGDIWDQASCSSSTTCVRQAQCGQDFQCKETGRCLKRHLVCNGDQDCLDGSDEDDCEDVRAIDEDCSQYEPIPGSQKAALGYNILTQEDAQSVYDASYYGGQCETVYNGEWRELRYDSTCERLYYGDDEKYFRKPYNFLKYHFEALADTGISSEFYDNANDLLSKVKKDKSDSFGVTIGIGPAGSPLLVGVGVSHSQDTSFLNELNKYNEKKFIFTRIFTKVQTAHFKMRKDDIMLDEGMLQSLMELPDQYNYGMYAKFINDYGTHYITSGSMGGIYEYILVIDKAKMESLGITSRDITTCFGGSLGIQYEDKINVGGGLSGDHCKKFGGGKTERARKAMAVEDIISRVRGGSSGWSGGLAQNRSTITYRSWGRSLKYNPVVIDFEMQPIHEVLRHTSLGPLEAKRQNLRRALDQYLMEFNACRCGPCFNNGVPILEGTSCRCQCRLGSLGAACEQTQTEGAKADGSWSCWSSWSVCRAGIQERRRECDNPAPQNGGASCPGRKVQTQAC
UniProt P07357, sequence (P07358 55-591, chain 2 of 3, further chain): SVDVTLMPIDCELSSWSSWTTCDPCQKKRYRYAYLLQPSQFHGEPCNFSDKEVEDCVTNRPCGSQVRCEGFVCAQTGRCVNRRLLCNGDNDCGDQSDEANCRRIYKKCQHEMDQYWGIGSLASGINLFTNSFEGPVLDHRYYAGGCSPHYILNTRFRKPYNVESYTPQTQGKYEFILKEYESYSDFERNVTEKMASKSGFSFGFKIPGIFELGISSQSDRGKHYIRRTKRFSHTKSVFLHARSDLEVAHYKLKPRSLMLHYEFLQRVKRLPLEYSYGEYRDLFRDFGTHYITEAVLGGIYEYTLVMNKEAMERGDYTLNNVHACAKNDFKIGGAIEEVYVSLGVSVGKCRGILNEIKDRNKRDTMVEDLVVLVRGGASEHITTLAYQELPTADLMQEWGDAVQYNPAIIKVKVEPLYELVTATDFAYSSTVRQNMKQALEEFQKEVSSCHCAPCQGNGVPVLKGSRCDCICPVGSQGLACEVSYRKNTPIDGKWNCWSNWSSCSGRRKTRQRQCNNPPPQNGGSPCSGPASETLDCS
UniProt P07357, sequence (P07360 21-202, chain 3 of 3, further chain): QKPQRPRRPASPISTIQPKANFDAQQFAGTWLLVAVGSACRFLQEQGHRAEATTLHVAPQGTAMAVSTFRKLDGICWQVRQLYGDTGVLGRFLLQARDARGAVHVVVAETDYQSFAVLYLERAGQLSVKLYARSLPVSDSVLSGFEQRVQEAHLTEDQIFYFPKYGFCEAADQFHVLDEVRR
UniProt P02748, sequence (P02748 22-559): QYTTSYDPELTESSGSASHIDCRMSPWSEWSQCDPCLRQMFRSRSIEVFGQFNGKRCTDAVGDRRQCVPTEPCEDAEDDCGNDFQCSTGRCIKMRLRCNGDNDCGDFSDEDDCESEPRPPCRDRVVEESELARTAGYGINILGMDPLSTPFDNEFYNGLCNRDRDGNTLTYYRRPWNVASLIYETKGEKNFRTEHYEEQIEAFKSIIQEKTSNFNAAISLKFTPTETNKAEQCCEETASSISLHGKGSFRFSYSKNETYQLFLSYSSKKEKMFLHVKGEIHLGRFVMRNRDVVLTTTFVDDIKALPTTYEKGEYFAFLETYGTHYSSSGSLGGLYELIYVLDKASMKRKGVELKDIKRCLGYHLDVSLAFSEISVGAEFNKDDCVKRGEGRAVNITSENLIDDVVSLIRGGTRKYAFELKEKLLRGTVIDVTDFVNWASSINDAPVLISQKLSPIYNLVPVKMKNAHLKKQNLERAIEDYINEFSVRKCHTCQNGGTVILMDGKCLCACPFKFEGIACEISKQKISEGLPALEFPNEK

| Substance | stoichiometry N [1] | stoichiometry N [2] | Kd [3] | percent of the maximal binding (2 h) reached at 5 min [4] | percent reduction of binding with 10 ug/well heparin [5] | percent reduction of binding with 100 ug/well heparin [5] | Kd [6] | Kd [7] | Kd [8] |
| --- | --- | --- | --- | --- | --- | --- | --- | --- | --- |
| native LIC11711 (natural protein) | 2 | – | – | – | – | – | – | – | – |
| recombinant protein LIC11711 (natural protein) | – | 2 | 3820 nM | 40% | 40% | 54% | – | – | – |
| recombinant protein LIC12587 (natural protein) | – | – | – | – | 10% | 51% | 630 nM | 470 nM | 1950 nM |
